Measurements as given in PMC6048764, “Myricetin antagonizes semen-derived enhancer of viral infection (SEVI) formation and influences its infection-enhancing activity” (Retrovirology, 2018).

B1: SEM1_(86–107) (peptide, UniProt P04279 86-107, looked up)
peptide: DLNALHKTTKSQRHLGGSQQLL
notes: source: synthetic peptide (Scilight Biotechnology LLC, Beijing)
B2: SEM2_(86–107) (peptide, UniProt Q02383 86-107, looked up)
peptide: DLNALHKATKSKQHLGGSQQLL
notes: as for B1

Molecular target: the molecule itself
Assay: thioflavin T fluorescence; amyloid fibril formation; peptide 3 mg/ml agitated at 1400 rpm at 37 °C for 48 h, without myricetin

Binding result, binds:
RLQGGVLVNEILNHMKA (peptide, UniProt P15309 257-273, looked up, source: synthetic peptide) [PAP257–273 Arg273A]
B1
B2
RAQGGVLVNEILNHMKR (peptide, UniProt P15309 257-273, looked up, source: synthetic peptide) [PAP257–273 Leu258A]
RLAGGVLVNEILNHMKR (peptide, UniProt P15309 257-273, looked up, source: synthetic peptide) [PAP257–273 GIn259A]
RLQGGVLVNEIANHMKR (peptide, UniProt P15309 257-273, looked up, source: synthetic peptide) [PAP257–273 Leu268A]
